Blank lines part the entries; values can stand above or below the substance they belong to.
Columns and labels:
Assay in all cases: SPR
[1] = target: LRP1 CR doublet CR.27-28 (human)
[2] = target: LRP1 CR doublet CR.22-23 (human)
[3] = target: LRP1 CR doublet CR.5-6 (human)
[4] = target: low density lipoprotein receptor-related protein 1 (LRP1) (UniProt Q07954)
[5] = target: LRP1 cluster IV (CR.21–31) (UniProt Q07954)
[6] = target: LRP1 cluster II (CR.3–10) (UniProt Q07954)
[7] = target: LRP1 CR.6–8 triplet
[8] = target: LRP1 CR.6–7 doublet
[9] = target: LRP1 CR.7–8 doublet (UniProt Q07954)

Kd [1]: 165 nM
Kd [2]: 172 nM
Substance: B domain-deleted factor VIII (recombinant, product C) (natural protein)

Kd [3]: 131 nM
Substance: Recombinant full-length factor VIII (natural protein)

Kd [4]: 22.8 nM
Kd [5]: 19.6 nM
Kd [6]: 11.3 nM
Kd [7]: 28.4 nM
Kd [8]: 65.2 nM
Kd [9]: 81.5 nM
Substance: Recombinant full-length FVIII (product A) (natural protein)

From article PMC9804390
